Test [1] concerns the target T1, hCDH17-his (full length extracellular domain of human CDH17, Q23-M787, his tag at the C-terminal) (human, UniProt Q12864 23-787).
T1 construct: Limits of the construct (UniProt Q12864, Q23-M787, C-terminal his tag); also called human CDH17-his protein; human CDH17 protein
T1 sequence: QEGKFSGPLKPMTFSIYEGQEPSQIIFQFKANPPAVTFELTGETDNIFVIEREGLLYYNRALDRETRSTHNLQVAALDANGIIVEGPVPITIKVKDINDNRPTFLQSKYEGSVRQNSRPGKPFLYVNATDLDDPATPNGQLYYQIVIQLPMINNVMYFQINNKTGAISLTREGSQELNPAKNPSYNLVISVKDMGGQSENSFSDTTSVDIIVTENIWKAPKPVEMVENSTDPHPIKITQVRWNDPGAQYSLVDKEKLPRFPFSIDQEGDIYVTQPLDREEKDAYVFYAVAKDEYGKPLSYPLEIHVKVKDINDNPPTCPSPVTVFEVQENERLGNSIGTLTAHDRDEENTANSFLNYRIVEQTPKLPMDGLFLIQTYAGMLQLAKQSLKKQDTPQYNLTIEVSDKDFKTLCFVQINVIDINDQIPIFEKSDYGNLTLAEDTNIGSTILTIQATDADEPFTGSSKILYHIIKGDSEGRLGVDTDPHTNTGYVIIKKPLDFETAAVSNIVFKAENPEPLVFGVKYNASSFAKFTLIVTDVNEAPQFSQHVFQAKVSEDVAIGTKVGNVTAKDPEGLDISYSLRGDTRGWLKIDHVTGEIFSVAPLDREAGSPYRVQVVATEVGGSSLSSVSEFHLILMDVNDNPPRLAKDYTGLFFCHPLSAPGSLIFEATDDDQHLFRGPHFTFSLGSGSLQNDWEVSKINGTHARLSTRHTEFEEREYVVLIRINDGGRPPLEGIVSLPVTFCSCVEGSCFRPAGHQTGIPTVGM
The test can be described thus: SPR (Biacore 8K), antibody captured on Protein A chip, hCDH17-his injected. A general note: Surface plasmon resonance follows binding to a sensor surface in real time, without labels.

Test [2] deals with T2, human CDH17, full length, expressed on cells (HEK293-hCDH17); AsPC-1, HCT-8, AGS, LoVo, KATO III, HT-29 tumor … (human, UniProt Q12864 23-832).
T2 construct: also called human CDH17 expressed on tumor cells
T2 sequence: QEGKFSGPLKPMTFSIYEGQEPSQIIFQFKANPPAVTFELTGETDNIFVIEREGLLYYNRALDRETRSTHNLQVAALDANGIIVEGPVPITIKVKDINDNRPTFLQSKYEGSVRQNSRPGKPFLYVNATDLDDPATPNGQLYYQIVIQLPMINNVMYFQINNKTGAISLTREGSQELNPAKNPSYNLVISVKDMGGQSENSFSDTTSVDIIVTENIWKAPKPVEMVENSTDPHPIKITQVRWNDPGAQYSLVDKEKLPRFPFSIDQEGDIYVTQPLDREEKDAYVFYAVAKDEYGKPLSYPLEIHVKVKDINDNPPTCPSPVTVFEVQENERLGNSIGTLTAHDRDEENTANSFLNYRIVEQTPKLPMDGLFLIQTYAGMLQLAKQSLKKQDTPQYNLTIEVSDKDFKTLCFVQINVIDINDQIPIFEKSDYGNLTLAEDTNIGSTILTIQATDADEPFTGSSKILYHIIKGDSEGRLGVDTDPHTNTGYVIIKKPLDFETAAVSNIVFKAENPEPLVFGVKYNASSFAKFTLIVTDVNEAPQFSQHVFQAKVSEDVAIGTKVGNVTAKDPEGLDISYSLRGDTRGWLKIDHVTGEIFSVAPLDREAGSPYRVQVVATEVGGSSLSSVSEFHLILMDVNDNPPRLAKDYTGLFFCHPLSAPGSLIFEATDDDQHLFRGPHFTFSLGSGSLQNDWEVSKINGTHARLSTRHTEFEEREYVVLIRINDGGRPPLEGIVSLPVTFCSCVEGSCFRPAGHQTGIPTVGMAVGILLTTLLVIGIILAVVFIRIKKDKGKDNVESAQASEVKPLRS
Put plainly: flow cytometry, AGS cells.

Test [3] addresses T2, human CDH17, full length, expressed on …. Put plainly: flow cytometry, AsPC-1 cells.
The target is the same in test [4]. The test can be described thus: flow cytometry, AsPC-1, AGS, KATO III and HT-29 cells. In general terms: Flow cytometry measures light scatter and fluorescence of single cells or particles in a stream.

B1: 152A1D12-z17 (antibody, V domains shown)
VH: QVQLVQSGAEVKKPGASVKVSCKASGYTFTDYNMHWVKQAPGQRLEWIGYIYRNNGYNGYNQKFKNKATLTVDTSASTAYMELSSLRSEDTAVYYCARNYWRGAMDYWGQGTTVTVSS
VL: EIVLTQSPATLSLSPGERATLSCSASSSISYMHWYQQKPGQAPRLLIYDTSKLASGIPARFSGSGSGTDFTLTISSLEPEDFAVYYCHQRSSYPWTFGGGTKVEIK
notes: Humanized, human IgG1 constant region; also called 152A1D12 HU-VH1-3 / HU-VL2-0
Regarding B1, the binding result in test [1] and in test [2] was “binds” each time.

B2: 152A1D12-z13 (antibody, V domains shown)
VH: QVQLVQSGAEVKKPGASVKVSCKASGYTFTDYNMHWVKQAPGQRLEWIGYIYRNNGYNGYNQKFKNKATLTVDTSASTAYMELSSLRSEDTAVYYCARNYWRGAMDYWGQGTTVTVSS
VL: EIVLTQSPATLSLSPGERATLSCSASSSISYMHWYQQKPGKAPKLLIYDTSKLASGVPSRFSGSGSGTDFTLTISSLQPEDFATYYCHQRSSYPWTFGGGTKVEIK
notes: Humanized, human IgG1 constant region; also called 152A1D12 HU-VH1-3 / HU-VL1-0
For the molecule B2, the binding result in test [1] and in test [2] was “binds” throughout.

B3: 152A1D12-z18 (antibody, V domains shown)
VH: QVQLVQSGAEVKKPGASVKVSCKASGYTFTDYNMHWVKQAPGQRLEWIGYIYRNNGYNGYNQKFKNKATLTVDTSASTAYMELSSLRSEDTAVYYCARNYWRGAMDYWGQGTTVTVSS
VL: EIVLTQSPATLSLSPGERATLSCSASSSISYMHWYQQKPGQAPRLWIYDTSKLASGVPARFSGSGSGTDFTLTISSLEPEDFAVYYCHQRSSYPWTFGGGTKVEIK
notes: Humanized, human IgG1 constant region; also called 152A1D12 HU-VH1-3 / HU-VL2-1
In the case of B3, the binding result in test [1] and in test [2] was “binds” throughout.

B4: 29H8D3-z3 (antibody, V domains shown)
VH: QVQLVQSGAEVKKPGASVKVSCKASGYTFTDHTIHWVRQAPGQGLEWMGYIYPRDGYTKYNEKFKDRVTMTTDTSTSTAYMELRSLRSDDTAVYYCARFYYGYWYFDVWGQGTTVTVSS
VL: DIVMTQSPLSLPVTPGEPASISCRSSKSLLRSNGNTYLYWFLQKPGQSPQVLIYRMSNLASGVPDRFSGSGSGTDFTLKISRVEAEDVGVYYCMQHLEYPFTFGQGTKLEIK
notes: Humanized variable regions fused to human IgG1 constant region
With B4, the binding result in test [1] and in test [3] was “binds” in each case.

B5: 29H8D3-z9 (antibody, V domains shown)
VH: QVQLVQSGAEVKKPGASVKVSCKASGYTFTDHTIHWMRQAPGQGLEWIGYIYPRDGYTKYNEKFKDRATMTTDTSTSTAYMELRSLRSDDTAVYYCARFYYGYWYFDVWGQGTTVTVSS
VL: DIVMTQSPLSLPVTPGEPASISCRSSKSLLRSNGNTYLYWFLQKPGQSPQVLIYRMSNLASGVPDRFSGSGSGTDFTLKISRVEAEDVGVYYCMQHLEYPFTFGQGTKLEIK
notes: Humanized, human IgG1 constant region
On to B5, for which the binding result in test [1] and in test [3] was “binds” each time.

B6: 29H8D3-z6 (antibody, V domains shown)
VH: QVQLVQSGAEVKKPGASVKVSCKASGYTFTDHTIHWVRQAPGQGLEWIGYIYPRDGYTKYNEKFKDRATMTTDTSTSTAYMELRSLRSDDTAVYYCARFYYGYWYFDVWGQGTTVTVSS
VL: DIVMTQSPLSLPVTPGEPASISCRSSKSLLRSNGNTYLYWFLQKPGQSPQVLIYRMSNLASGVPDRFSGSGSGTDFTLKISRVEAEDVGVYYCMQHLEYPFTFGQGTKLEIK
notes: as for B5
For the molecule B6, the binding result in test [1] and in test [3] was “binds” each time.

B7: 155B11C6-z3 (antibody, V domains shown)
VH: QVQLVQSGAEVKKPGASVKVSCKASGYTFTSYTMHWVRQAPGQGLEWMGYIDPKSDYNYYNQKFKDRVTMTRDTSISTAYMELSRLRSDDTAVYYCARGFFKGYFDVWGQGTTVTVSS
VL: EIVLTQSPGTLSLSPGERATLSCSVSSSISSSNLHWYQQKPGQAPRPWIYGTSNLASGVPDRFSGSGSGTDYTLTISRLEPEDFAVYYCQQWTSYPFTFGQGTKLEIK
notes: Humanized, human IgG1 constant region; also called 155B11C6 HU-VH1-0 / HU-VL1-2
Turning to B7, the binding result in test [1] and in test [2] was “binds” throughout.

B8: 155B11C6-z7 (antibody, V domains shown)
VH: QVQLVQSGAEVKKPGASVKVSCKASGYTFTSYTMHWVRQAPGQGLEWIGYIDPKSDYNYYNQKFKDRATLTRDTSISTAYMELSRLRSDDTAVYYCARGFFKGYFDVWGQGTTVTVSS
VL: EIVLTQSPGTLSLSPGERATLSCSVSSSISSSNLHWYQQKPGQAPRPWIYGTSNLASGVPDRFSGSGSGTDYTLTISRLEPEDFAVYYCQQWTSYPFTFGQGTKLEIK
notes: Humanized, human IgG1 constant region; also called 155B11C6 HU-VH1-2 / HU-VL1-2
Turning to B8, the binding result in test [1] and in test [2] was “binds” throughout.

B9: 155B11C6-z4 (antibody, V domains shown)
VH: QVQLVQSGAEVKKPGASVKVSCKASGYTFTSYTMHWVRQAPGQGLEWMGYIDPKSDYNYYNQKFKDRVTMTRDTSISTAYMELSRLRSDDTAVYYCARGFFKGYFDVWGQGTTVTVSS
VL: EIVLTQSPGTLSLSPGERATLSCSVSSSISSSNLHWYQQKPGQSPRPWIYGTSNLASGVPDRFSGSGSGTSYTLTISRLEPEDFAVYYCQQWTSYPFTFGQGTKLEIK
notes: Humanized, human IgG1 constant region; also called 155B11C6 HU-VH1-0 / HU-VL1-3
Regarding B9, the binding result in test [1] and in test [2] was “binds” throughout.

B10: 29D2D7-z19p3-DXd (antibody, V domains shown)
VH: QVQLVQSGAEVKKPGASVKVSCKASGYTFTDYDMHWVKQAPGQGLEWIGGFDPESAGTVYNLRFKDKATLTADKSTSTAYMELRSLRSEDTAVYYCARKGYYSVSSPFTYWGQGTLVTVSS
VL: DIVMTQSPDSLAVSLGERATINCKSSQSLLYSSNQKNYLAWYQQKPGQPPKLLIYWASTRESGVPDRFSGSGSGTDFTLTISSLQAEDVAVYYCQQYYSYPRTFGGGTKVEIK
modifications: MC-GGFG-DXd (deruxtecan) conjugated to the antibody, DAR around 7.50-7.90; sites not given
notes: also called 29D2D7-z19-MC-GGFG-DXd
Turning to B10, in test [4], the binding result is given as “binds”.
